According to a protein production outcome set (Wang et al. 2014):

Assay: label from the status in PepcDB records

Sequence	protein production
MSSSDGKLRYDGRVAVVTGAGAGLGREYALLFAERGAKVVVNDLGGTHSGDGASQRAADIVVDEIRKAGGEAVADYNSVIDGAKVIETAIKAFGRVDILVNNAGILRDRSLVKTSEQDWNLVNDVHLKGSFKCTQAAFPYMKKQNYGRIIMTSSNSGIYGNFGQVNYTAAKMGLIGLANTVAIEGARNNVLCNVIVPTAASRMTEGILPDILFNELKPKLIAPVVAYLCHESCEDNGSYIESAAGWATKLHMVRGKGAVLRPSLDDPVTIEYVKDVWSNVTDMSKAKHLGAIAEASGTLLEVLEKLKEGGGDAIEDAFEFNSKELITYALGIGASVKNAKDMRFLYENDADFAAIPTFFVLPGLLLQMSTDKLLSKALPNSQVDFSNILHGEQYLEIVDDLPTSGTLLTNGKVFDVMDKGSGAVVVTNSESFDESGRLLVRNQSTTFIVGAGKFGGKKDPIAGVVPLQPAPNRQPDATVQYTTSEDQAALYRLSGDKNPLHIDPQMALLAGFKTPILHGLCTLGFSVRAVLAQFADNNPALFKAVKVRFSGPVIPGQTLRVDLWKQGTRINFRTVVVETGKEVISGAYVDLKSSQAKL	failed
MQFLPILFVLLASGSFLSYTLSSYAIGNGTANIYHYVLNATSTGTEYNVSVFLNWSYSNLYEYVNKYDYSTFHKNFQVPDLYYIFYHSNPSTLAYILLFNNVTLTTYNLGGNQIPAIKFYNGDNYLTVSAQYGVMLQGFAKNYAGPSAGTLNVSISLNSYKNLPSFVSNANMYTLNVSFMPNPSALSYTLYLVSPEAKISGSNMYVSKEISIAYLSILSKGFTTIIIPSAYSIVRPIGEVIINQTNYYYFYLNGTLTYYGTYFTPKYYNSTTPFTIDTIGKYIVIFFPTGGNITVFLNNGNNPLYGVKVTGETGNKNTPLSLYLIIIGVVIVLVVAIIVLRFRKVF	failed
MNDSTMKCIKLAAIVCIAIGLSACSEQKTTQEYILASKVYLQKLEYGAAIVELKNAVRQTPKDAEARYYLAKAYSEQGSYVNAEKELDKAEQFGLEMNLLLPDLVFIKSKLNKVEEVYALMENVESLNDEQYIVVLTYAGITALNNKELERAQDFIAQANTISETSLYSKMGAAYLLHAEDNFSKGIEIIDTVLGESPDFTEALLLKGHLLFSSEQFIQANGVYTKYRQLHPFANKVLFFEVNSLISAGEYEQADVKATELIKRFKNSPLAHQYKAQVEYQKKNYEDARSYAISAAQQGNEFIISKLIAGMSSYQLGDIEQAYGYLNQTEKYLPSSHPIKRILASIKIKLGYTTEGIVQLSALEGLTTSDAGLFQSSSIELIKAGDFENAIKLLDKASIIAPENASVAAQKGMLKLSQNDKTGIASLEHALNLDPNLKDVEFSLAIQYLDNGQEKKVRSIAKKWIASQDNQASGYLLLGIIHSNNNLSSKAEENYQKALSIEPENYTALFYLADIAEDADRILDAVDYYQKVVTILPEHKAAIQKLSRLQLKHNNTSNNVEFLSTLAAKHPKNITLALGLAQNLRLNNELKKAITLLESMSDWARSSQQYWAILGDNYLQAKSHTKAKECFKKVLALNPNNFVAHLRLIAISEVKRNYKQALTYTISSLERFEHNTRLLILKANFELLTGDLVSAKKTLRYLQEQKVSHHLINKFVGELALADKDYPSAIDNFHELYQKSPTALNVMLLARALSFNGQKAEAAQTIESYLSRMIKDHKVRLLLAELYMQFDEAKAIKHLEIINQSEQNNAVVLNNLAMLELKRARPEQALLYAEKAFELKSGIHQISDTYGAALVTVKNFDSAIIVLLNAINQGSEAETTYVNLTKAYLATGKTDKVKALLDSIKDRTFYSKVQAMR	failed
MSELRILRAVDYPRMPWKNGAGSTEEIARDGGDGLDGFGWRLSIADVGESGGFSGFAGYQRIISVLEGGGMRLRVDGAESAPLRARQAFAFSGDSEVHCTLLDGAIRDFNLIYAPRRHRARLQWLRVEGELDWHGTASTLLLFAQQDGVAISLQGQPRGQLAAHDCLCAEGLQGLQHWRLTAHEPAWVCAVELDSL	not failed
AGVVVPKYTPSTENPGGPGEEPGDGLIDPAEPLDRGFMHLKGRELKSLNSISITGLNDGEKVILSTLAGLAARVTGDQVYINEGGPSSVWLKQMQNKYGIPVNTYNALAPLVQHYVETGVIKGYIVYTPYSEGQSHSINVATSLCGLLRGIAVPESLVDKVKAMGVTTELMDVRSYDEKWLYENYKDQLDKSLAADMKPEIFHHLRDYITMTNAFAFYDYNARRDWSWRTSILKDLDKGAYCFGYYDLDEWGMVNNASQLGVSMLPTDQAANLATLSSIYDTTGLKQRPATKEVVTEENVHYVTFLVSDGDNIAFNLWGQQGYMDHDLHGQFPLGYTISPSLYDLAPAALRWYYENSKEGDYFVAGPSGSSYIFPSKMSDADLDDYLAKLNEYVDKSGLNICNILDQKIMDNPKVYNKYLAQPNIDAIFYTGYGEKGDGRIKFSDNGKPVIEQRSVLWEGIDGGSNRGEESTVISQINSRSANPHSADGYTFVFVHCWTKNQQSIKTVIDGLNDNVRVVPVDQFVQLVKQNLGPK	not failed
METRAPFVIVGAFVLAAIFAVFGFVFWLHNTSGVGARTSYHVQFRDPVPGLLVGAAVLFNGIRVGEVTALALAPDDPRRVDATIAVAPSTPVRPDTKVGLDFQGLTGVPVVALEGGKQLSGSAIATTLVAEPGAGMSMTQAAREALRKVDSVLGENSGPLKDTIANFKTFSEWLAGKTEKLDGILGGVERMTGANEPVVKKVVYDLSAATGFPPPSPPLKGQLTIPESNTVVLFDSQKMLLAPGLEVPAFAGAQWSDSLPKMLQEKLIQSFENYDIAHAPMRPNDAVQPDYQLLTDIRSFQVIGEGDALRAEIAFSAKIIDKDGKLVAARLFQQASPLDKPEPAAAVSAFDKSFDTIAKELVPWAAQALASGRAEVEPAATTSRPITAPRSSGTTKGR	failed
METNRPSPDALLVNLQEEADSSVGKLKIYFGFAAGVGKTYAMLSDAKDQLAAGVDVVAGYIEPHAREETLRMLEGIPIIPPKAINHKNIALKEFDLDEALKRKPELILVDELAHTNASGVRNKKRFQDVEELLQAGIDVYTTVNVQHIESLNDIVEGITKVAVRETIPDYVFDEADRVKLIDIEPDELLKRLEQGKIYQPARAKTAMQNFFTRENLKLLREIAMRKAADRI	not failed
MKENDGAPLKEGETASKYSVIINMILVVIKGFTGYLSGNIALIADAIHSFADVFSSAAVFIGLKLSQRKPDELFPYGYHRIETLVSLLVSVLIIITGLEITWDSIIYILNPASEVSMATASLAVSLISIGVSYAIAFYKVRVGRRIGSTALLNDGKHSYVDVISSILVFLGILGEYMGLHGFQGIAGVIISVVIIYIGIRLAKYDVLTLLDACIDRDSIEVIKKTVLSVPGVEGVHDIRIRRSGPYLFGELHIELERGLPVDKIEGIISQINSRVKEVLPSIDHLTVQPETVKREEVVVAVPLADNHGMESRISTHFGRADSFLIARTRRGEILDYRIIENSGKSLRTKRGIRAAELLKDENIDVLVIEKLSEGPELLFSDYLLGKVPPEGSSLEEVIKNASMKFSE	failed
MNTLNRYIGWEVIKGAAFAALVLLALLNFFTFADELRDLGEGNYGLGSIFLYLTLTSPHSLYELIPSGALIGGLVVLGNMANNHELVAMQAAGVSRGRIVWAVLRAGIVISLISVVISEYVIPPAERAAQMLKATATRQQVASQTKYGVWIRDGNVYVNVREIENQERLGDIHIFEISPDGRPALAMHAARASFDRGIWKLEDIGLTRFDPAGNAAIAEHKEQEDWSSVLSPDMLDVFIVRPENLSAQDLAKYMAYQTENAQKSLAVEQAFWGRMVNPLITLAMLLLAIPFVFNARRDVSSGQRIVIGVTIGLGFYLTNRMVSHLGLVYEVNAPLTMVTPPLVVLFAALAAFRRRP	failed
MGIRHIALFRWNDTVTPDQVEQVITALSKLPAAIPELKNYAFGADLGLAAGNYDFAVVADLDGEDGFRAYQDHPDHRAALAIIAPMLADRVAVQFAL	not failed
MRFKAELMNAPEMRRALYRIAHEIVEANKGTEGLALVGIHTRGIPLAHRIARFIAEFEGKEVPVGVLDITLYRDDLTEIGYRPQVRETRIPFDLTGKAIVLVDDVLYTGRTARAALDALIDLGRPRRIYLAVLVDRGHRELPIRADFVGKNVPTSRSEVVKVKVEEVDGEDRVELWEREGA	not failed
MVNLDAEIYEHLNKQIKINELRYLSSGDDSDTFLCNEQYVVKVPKRDSVRISQKREFELYRFLENCKLSYQIPAVVYQSDRFNIMKYIKGERITYEQYHKLSEKEKDALAYDEATFLKELHSIEIDCSVSLFSDALVNKKDKFLQDKKLLISILEKEQLLTDEMLEHIETIYENILNNAVLFKYTPCLVHNDFSANNMIFRNNRLFGVIDFGDFNVGDPDNDFLCLLDCSTDDFGKEFGRKVLKYYQHKAPEVAERKAELNDVYWSIDQIIYGYERKDREMLIKGVSELLQTQAEMFIF	not failed
MPISAHYGLTVLIWGLTWTAIRLQVESASVDLAVFYRFVMASVVALAVLAVTRRLSRLTLGQHGWLFLQGLTLYSVNFLLIYRAAESMTSGLLAVVFSLAALFNAFNGWLWLRTRPTARLYPAVALGVTGVALLFWHDLQLGNATGASILFAVAGTFWFSMGNLVSVKVKAAGVPLFTANAWAMVYGALILGLWCLIQGVEWMLPATSVFWGATVFLAVPGSIVAFYCYITVIQVLGADKAGYAAVLFPVVALSVSTWLEGFEWTTPAMLGALLAILGNYVLFRPGKRQSVSATSVPEQRT	failed
MATVERAMMLKTMRKHGVTLALFAAGSTGLTAAINELTKSTIDQQAALQQKALFDQVLPADRYNNDLLKSCYLVSAPALGKGQHKVWIAKNNDRPIGAVMEATAPDGYSGAIQLLVAADFSGTVLGTRVTEHHETPGLGDKIELRLSDWITHFAGKVIHGQGDSHWAVKKDGGDFDQFTGATITPRAVVNAVKRAGLYAQTLPAQLPEFTACGE	failed
MKNFFNHIELKFANLLSKISFMLLMVVGLLMVYFLFREVYNLVLLAFLSESEVHYYDILESILSFFIFFEFLTLIITSLRNKGHVSLIFLLSLGITSLIRLLLTYHERLVGVLLIASAILILIIGVFVLKKFVFPNDDTADYF	failed
MKTSRSSIGKSIFLAATMLATGSAAWAGQAPGALSSPDIPISHHDRVYAAEQFSNTVSVTDPVDNKLLGVIRLGDPQPGNFSPLYKGQVLVHGMGFSPDHKMLAVVSIGSNSVTFIDTATNAVKHTTYIGRSPHEAFFTPDGKEVWVTVRGENYISVIDPQSFEERRRITTPSGPGMQMFSPDGKYAYICSSFNPETDVVAVAEHKIIAKVKQESPFCPNIAVTPDGNQVWFTLKDTGRTQVFNARPPFNPIRTIDTGPITNHVNFAHTARGTFAYVTIGGLNQVKVFRTDDFSQVATIPVGNLPHGVWPSGDGTRIYVGLENADALAAIDTATNSVVANVPIGQAPQAIAYVPGAAPNPDDRQNLQALGVAGQFAHLALASRDGSKDGKAPTSVSLFDQGLIQILQASVTGLEPRQKYVLALAEHGDGSGTLQPLAAFMTNPAGSAIVNAAGPIRQIVDQSAAAARRYLVIASGDVAMPGEAVQIEAQ	failed
MHEFSTVDGFAEINESLAEMIKYIANEPSVGLYYIQQHIRNAAPNVINLNNNVLEKSRETGLHTEDLEDSIAMVKSMKDCGSPIADEMIGDIKNSLAIMSSKQPRRGVILNSTSPWSRSSSITTRTRGSDNSQDNSESSNYFTSVFMTAKEKASNIKWPQLDFKEQKSEADPNVQSNELKEEEEEDSGKGEHIVETTKFEEFKAGKEASLKAWLGDMDGNVDVGGRVAERI	not failed
MPTFDHGNLSLGELELTVLYDEERYDIVEQTETVQVDLEGPRGVLTVFRFARPSYEVFVDLTEAGEGSHTVDVEHRGFPGDLAVTVEPRMARVQLEERQTVSVPVTVEMINLEHHHHHH	not failed
MVVNTLGRYFARRFVIASLGVFFGLFVLLVFVDYVDLLRRAGGLAVSAFYVAQASFCRVPQLLERLLPFCILIGGMTCYLALSRSLELVVARAAGLSAWEFISPALWSAIAIGIFATTVFNPLSAHMQERAKQMEAEMFGENTGGLQDANGFWMNQVSPDGQAIINAARSQQQGAVLTGITVFRFEPDFQFKDRIEAREAVLEPGHWLLKNVRRYTMDGAPVDQDTLELPTSLTLAQVRNSFATPESVSFWQLPTYIKSSENSGFATAGYRLQYHKLLAKPFLLAAMVMLAASVSLRFFRFGGVQKMVLSGVAAGFLLYILSKVTEDLSKAELMHPLAAAWLPVCVGGLAGFLALLYQEDG	failed
